The target in the data set is T1, ETS1 x2 (Homo sapiens, UniProt P14921).
T1 sequence: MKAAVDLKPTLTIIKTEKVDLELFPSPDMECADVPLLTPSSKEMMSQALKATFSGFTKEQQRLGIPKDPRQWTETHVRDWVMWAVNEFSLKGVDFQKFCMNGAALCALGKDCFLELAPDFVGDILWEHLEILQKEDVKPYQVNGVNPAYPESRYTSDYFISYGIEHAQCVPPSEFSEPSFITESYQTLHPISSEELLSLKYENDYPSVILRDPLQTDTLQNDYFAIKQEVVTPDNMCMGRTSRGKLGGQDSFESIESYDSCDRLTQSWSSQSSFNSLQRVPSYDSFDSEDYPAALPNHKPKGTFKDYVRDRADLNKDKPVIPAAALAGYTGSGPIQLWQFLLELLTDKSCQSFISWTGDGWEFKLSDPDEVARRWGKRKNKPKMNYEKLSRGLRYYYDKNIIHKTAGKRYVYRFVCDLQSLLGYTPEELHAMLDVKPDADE
Nature of the data set: gcPBM; 10 nM ETS1. Particulars: tags: N-terminal GST (pDEST15), kept (PMC6008103); chain copies: 2; label: surface-attached array probe.

B1: Table S4 A row 126 (dsDNA)
DNA 1: CACTGCACACTTCCTAGCAGGCTTCCTGTGTAGCTG
DNA 2: CAGCTACACAGGAAGCCTGCTAGGAAGTGTGCAGTG
Take B1: the binding signal was 4970 PBM fluorescence, median of replicate spots.

B2: Table S4 A row 2310 (dsDNA)
DNA 1: CATACGGCGCCACCGGAAGTTCCGGCAAGTGGGCCC
DNA 2: GGGCCCACTTGCCGGAACTTCCGGTGGCGCCGTATG
On to B2, for which the binding signal is 18500 PBM fluorescence, median of replicate spots.

B3: Table S4 A row 1991 (dsDNA)
DNA 1: GCGCGCACCCTCCTTCCGGCATCCGTAGAACCCCCG
DNA 2: CGGGGGTTCTACGGATGCCGGAAGGAGGGTGCGCGC
Take B3: the binding signal is 15100 PBM fluorescence, median of replicate spots.

B4: Table S4 A row 634 (dsDNA)
DNA 1: AGACAGACACTGCTTCCTGCTTCCTAATGGCCGATC
DNA 2: GATCGGCCATTAGGAAGCAGGAAGCAGTGTCTGTCT
In the case of B4, the binding signal is 10500 PBM fluorescence, median of replicate spots.

B5: Table S4 A row 2212 (dsDNA)
DNA 1: CTGGGCCAGGCGGAAGCTCTGCTTCCGCATGCTGGG
DNA 2: CCCAGCATGCGGAAGCAGAGCTTCCGCCTGGCCCAG
With B5, the binding signal is 4240 PBM fluorescence, median of replicate spots.

B6: Table S4 A row 1913 (dsDNA)
DNA 1: AAATAACAGAAAGGAAATACATCCTGCCAGTTAACA
DNA 2: TGTTAACTGGCAGGATGTATTTCCTTTCTGTTATTT
On to B6, for which the binding signal was 8690 PBM fluorescence, median of replicate spots.

B7: Table S4 A row 1258 (dsDNA)
DNA 1: CCATCAGCAAACATCCCACCGGATGTTTTCTTAAGC
DNA 2: GCTTAAGAAAACATCCGGTGGGATGTTTGCTGATGG
In the case of B7, the binding signal is 5080 PBM fluorescence, median of replicate spots.

B8: Table S4 A row 215 (dsDNA)
DNA 1: GGGCCCCAGCTTCCTCTCTGCCTTCCGCCGCCCGCT
DNA 2: AGCGGGCGGCGGAAGGCAGAGAGGAAGCTGGGGCCC
Consider B8, for which the binding signal was 6960 PBM fluorescence, median of replicate spots.

B9: Table S4 A row 376 (dsDNA)
DNA 1: CGTGACACTTCTTTTCCTGTTTCCTGGGTCTCACCA
DNA 2: TGGTGAGACCCAGGAAACAGGAAAAGAAGTGTCACG
With B9, the binding signal is 4760 PBM fluorescence, median of replicate spots.

B10: Table S4 A row 1712 (dsDNA)
DNA 1: CACGAGTCCAGGAAACAAGTGCTTCCTGCCTATGGG
DNA 2: CCCATAGGCAGGAAGCACTTGTTTCCTGGACTCGTG
Turning to B10, the binding signal is 3840 PBM fluorescence, median of replicate spots.

B11: Table S4 A row 677 (dsDNA)
DNA 1: ACAGCCCCGCCCGCTTCCTTCCTGCCTTCTCCACGT
DNA 2: ACGTGGAGAAGGCAGGAAGGAAGCGGGCGGGGCTGT
In the case of B11, the binding signal was 3660 PBM fluorescence, median of replicate spots.

B12: Table S4 A row 822 (dsDNA)
DNA 1: AGCAGCTCAACAGGAAATACATCCTTTTCTGGTTGA
DNA 2: TCAACCAGAAAAGGATGTATTTCCTGTTGAGCTGCT
B12: the binding signal is 11900 PBM fluorescence, median of replicate spots.

B13: Table S4 A row 1340 (dsDNA)
DNA 1: TTGAGGCCCAGACCGGAACTTCCTTTCGGCCTCAGT
DNA 2: ACTGAGGCCGAAAGGAAGTTCCGGTCTGGGCCTCAA
As to B13, the binding signal is 5800 PBM fluorescence, median of replicate spots.

B14: Table S4 A row 763 (dsDNA)
DNA 1: GGGCAACTTCCGCGACCTCTACCACATCCTTGAGAA
DNA 2: TTCTCAAGGATGTGGTAGAGGTCGCGGAAGTTGCCC
As to B14, the binding signal was 19000 PBM fluorescence, median of replicate spots.

B15: Table S4 A row 1614 (dsDNA)
DNA 1: GTTCTTCGACCCGGATGCGCTTCCTAATAAAACGGC
DNA 2: GCCGTTTTATTAGGAAGCGCATCCGGGTCGAAGAAC
Consider B15, for which the binding signal was 5240 PBM fluorescence, median of replicate spots.

B16: Table S4 A row 2304 (dsDNA)
DNA 1: GCGGCCTGACGGGAAACGTAGTTTCCGGGGCCAAGA
DNA 2: TCTTGGCCCCGGAAACTACGTTTCCCGTCAGGCCGC
For B16, the binding signal was 4630 PBM fluorescence, median of replicate spots.

B17: Table S4 A row 2128 (dsDNA)
DNA 1: CCGGCCCGCAGCCGGAACCGGAAATGCCCTTAGGGA
DNA 2: TCCCTAAGGGCATTTCCGGTTCCGGCTGCGGGCCGG
Turning to B17, the binding signal is 17000 PBM fluorescence, median of replicate spots.

B18: Table S4 A row 1550 (dsDNA)
DNA 1: AAGTTGGGCCTGACTTCCTTCCTGTGGGGTTGCAGC
DNA 2: GCTGCAACCCCACAGGAAGGAAGTCAGGCCCAACTT
In the case of B18, the binding signal is 5110 PBM fluorescence, median of replicate spots.

B19: Table S4 A row 323 (dsDNA)
DNA 1: TCCATGACCCCATTTCCGCTTCCTACAGGTGAGTGT
DNA 2: ACACTCACCTGTAGGAAGCGGAAATGGGGTCATGGA
As for B19, the binding signal is 21500 PBM fluorescence, median of replicate spots.

B20: Table S4 A row 1203 (dsDNA)
DNA 1: GGAGCGGAAGCCCTTTACACTACGGTGTTTCCGGCT
DNA 2: AGCCGGAAACACCGTAGTGTAAAGGGCTTCCGCTCC
On to B20, for which the binding signal was 5440 PBM fluorescence, median of replicate spots.

B21: Table S4 A row 557 (dsDNA)
DNA 1: TTGACATCCTGCTCTCCTGTGACTTTGCTTCCTGTT
DNA 2: AACAGGAAGCAAAGTCACAGGAGAGCAGGATGTCAA
Consider B21, for which the binding signal was 20500 PBM fluorescence, median of replicate spots.

B22: Table S4 A row 2352 (dsDNA)
DNA 1: CGCCGCTGACACCGGAACCGGAAACTTCATCAGGAG
DNA 2: CTCCTGATGAAGTTTCCGGTTCCGGTGTCAGCGGCG
For the molecule B22, the binding signal was 6600 PBM fluorescence, median of replicate spots.

B23: Table S4 A row 2376 (dsDNA)
DNA 1: CCCAGAGCCAATTTTCCACTTCCGCTTCCGGCGCTG
DNA 2: CAGCGCCGGAAGCGGAAGTGGAAAATTGGCTCTGGG
In the case of B23, the binding signal was 15700 PBM fluorescence, median of replicate spots.

B24: Table S4 A row 314 (dsDNA)
DNA 1: TTGGGAGGCACAGGAAGACCGGATGTGGTTTAAGAA
DNA 2: TTCTTAAACCACATCCGGTCTTCCTGTGCCTCCCAA
B24: the binding signal is 12700 PBM fluorescence, median of replicate spots.

B25: Table S4 A row 1500 (dsDNA)
DNA 1: CTCGTCGCCAGGGGAAGTGCTTCCTGCTGACAGGTC
DNA 2: GACCTGTCAGCAGGAAGCACTTCCCCTGGCGACGAG
Regarding B25, the binding signal is 4140 PBM fluorescence, median of replicate spots.

B26: Table S4 A row 1887 (dsDNA)
DNA 1: CACTCAGGAAGTAGGTCAGGAGGAGATATCCTGTGT
DNA 2: ACACAGGATATCTCCTCCTGACCTACTTCCTGAGTG
Turning to B26, the binding signal is 6420 PBM fluorescence, median of replicate spots.

B27: Table S4 A row 57 (dsDNA)
DNA 1: ACTGGAGAACAGGAAATAGCAGGAAACGTCACCTAC
DNA 2: GTAGGTGACGTTTCCTGCTATTTCCTGTTCTCCAGT
Take B27: the binding signal was 13600 PBM fluorescence, median of replicate spots.

B28: Table S4 A row 916 (dsDNA)
DNA 1: ACTGCAGATCCCCTTCCTGTTTCCTTTGCTCTCCTG
DNA 2: CAGGAGAGCAAAGGAAACAGGAAGGGGATCTGCAGT
For B28, the binding signal is 6260 PBM fluorescence, median of replicate spots.

B29: Table S4 A row 1964 (dsDNA)
DNA 1: CCACGGTGGTGACTTCCTTTTCCGCTCCCCTACACA
DNA 2: TGTGTAGGGGAGCGGAAAAGGAAGTCACCACCGTGG
For the molecule B29, the binding signal was 7690 PBM fluorescence, median of replicate spots.

B30: Table S4 A row 255 (dsDNA)
DNA 1: CTGGAGGCAGGCTTCCTGTGCTTCCTGTAGGTGACA
DNA 2: TGTCACCTACAGGAAGCACAGGAAGCCTGCCTCCAG
Take B30: the binding signal was 9790 PBM fluorescence, median of replicate spots.

B31: Table S4 A row 2250 (dsDNA)
DNA 1: CTGACAGACCCGGAAATAAGAGGAAACCACACACTT
DNA 2: AAGTGTGTGGTTTCCTCTTATTTCCGGGTCTGTCAG
On to B31, for which the binding signal is 8250 PBM fluorescence, median of replicate spots.

B32: Table S4 A row 1898 (dsDNA)
DNA 1: CCACCGGAAGACCTCAGTCATGTGGGTTTTCCGGTT
DNA 2: AACCGGAAAACCCACATGACTGAGGTCTTCCGGTGG
Consider B32, for which the binding signal is 7470 PBM fluorescence, median of replicate spots.

B33: Table S4 A row 1689 (dsDNA)
DNA 1: TGCCCGGATGTTGAGGTCTGGTTGGCATTTCCTGTG
DNA 2: CACAGGAAATGCCAACCAGACCTCAACATCCGGGCA
For the molecule B33, the binding signal is 9040 PBM fluorescence, median of replicate spots.

B34: Table S4 A row 954 (dsDNA)
DNA 1: GGTATACAGGAAACCCAGAGAGACAGGAAATGTCTC
DNA 2: GAGACATTTCCTGTCTCTCTGGGTTTCCTGTATACC
Regarding B34, the binding signal is 5630 PBM fluorescence, median of replicate spots.

B35: Table S4 A row 2542 (dsDNA)
DNA 1: GGGAAACTCCACAGGAAACGGAAATGGTCTCTCCCA
DNA 2: TGGGAGAGACCATTTCCGTTTCCTGTGGAGTTTCCC
Regarding B35, the binding signal was 4020 PBM fluorescence, median of replicate spots.

B36: Table S4 A row 189 (dsDNA)
DNA 1: CACTTTCTGAAGAGGAAACAGGAAGTGTGTTTCATA
DNA 2: TATGAAACACACTTCCTGTTTCCTCTTCAGAAAGTG
Turning to B36, the binding signal was 8380 PBM fluorescence, median of replicate spots.

B37: Table S4 A row 2364 (dsDNA)
DNA 1: GTGGGGCTTCCTGCCGCAGAGCCGCCTTCCGCCCTC
DNA 2: GAGGGCGGAAGGCGGCTCTGCGGCAGGAAGCCCCAC
With B37, the binding signal was 17300 PBM fluorescence, median of replicate spots.

B38: Table S4 A row 842 (dsDNA)
DNA 1: GGGTGGCCCAGGCTTCCGCTTCCTGCCCACATACCC
DNA 2: GGGTATGTGGGCAGGAAGCGGAAGCCTGGGCCACCC
Turning to B38, the binding signal is 10900 PBM fluorescence, median of replicate spots.

B39: Table S4 A row 2527 (dsDNA)
DNA 1: GCCTGAAGCCGGAAGACTATAGCTTCCCGGCATGCA
DNA 2: TGCATGCCGGGAAGCTATAGTCTTCCGGCTTCAGGC
For B39, the binding signal is 3700 PBM fluorescence, median of replicate spots.

Values taken from publication PMC10681739, “High-throughput data and modeling reveal insights into the mechanisms of cooperative DNA-binding by transcription factor proteins”.
